According to patent US20240018269A1 (MACFARLANE BURNET INSTITUTE FOR MEDICAL RESEARCH AND PUBLIC …, published 2024):
Positions count from the first letter of the chain named.

B1: chimeric anti-TNP human IgG4-SELF (antibody)
heavy: EVQLQESGPSLVKPSQTLSLTCSVTGDSITSGYWNWIRQVPGNKLEYMGFINYSGNTYYNPSLRSRISITRDTSKNQYFLHLNSVTTEDTATYYCARANWDVFAYWGQGTLVTVSAASTKGPSVFPLAPCSRSTSESTAALGCLVKDYFPEPVTVSWNSGALTSGVHTFPAVLQSSGLYSLSSVVTVPSSSLGTKTYTCNVDHKPSNTKVDKRVESKYGPPCPSCPAPEFLGGPSVFLFPPKPKDTLMISRTPEVTCVVVDVEQEDPEVQFNWYVDGVEVHNAKTKPREEQFNSTYRVVSVLTVLHQDWLNGKEYKCKVSNKGFPSSIEKTISKAKGQPREPQVYTLPPSQEEMTKNQVSLTCLVKGFYPSDIAVEWESNGQPENNYKTTPPVLDSDGSFFLYSRLTVDKSRWQEGNVFSCSVMHEALHNHYTQKSLSLSLGK
light: not shown
B2: chimeric anti-TNP human IgG2-FLGG (antibody)
heavy: EVQLQESGPSLVKPSQTLSLTCSVTGDSITSGYWNWIRQVPGNKLEYMGFINYSGNTYYNPSLRSRISITRDTSKNQYFLHLNSVTTEDTATYYCARANWDVFAYWGQGTLVTVSAASTKGPSVFPLAPCSRSTSESTAALGCLVKDYFPEPVTVSWNSGALTSGVHTFPAVLQSSGLYSLSSVVTVPSSNFGTQTYTCNVDHKPSNTKVDKTVERKCCVECPPCPAPEFLGGPSVFLFPPKPKDTLMISRTPEVTCVVVDVSHEDPEVQFNWYVDGVEVHNAKTKPREEQFNSTFRVVSVLTVVHQDWLNGKEYKCKVSNKGLPAPIEKTISKTKGQPREPQVYTLPPSREEMTKNQVSLTCLVKGFYPSDIAVEWESNGQPENNYKTTPPMLDSDGSFFLYSKLTVDKSRWQQGNVFSCSVMHEALHNHYTQKSLSLSLGK
light: not shown
notes: The entry includes a leader; the C-terminal LGK may differ
B3: Anti-TNP mAb formatted as IgG2-FLGG-SELF mutant (antibody)
heavy: B2 heavy with S263E, L324F
light: not shown
B4: chimeric anti-TNP human IgG2-LLGG (antibody)
heavy: B2 heavy with F230L
light: not shown
notes: The entry includes a leader
B5: Anti-TNP mAb formatted as IgG2-FEGG-SELF mutant (antibody)
heavy: B2 heavy with L231E, S263E, L324F
light: not shown
B6: chimeric anti-TNP human IgG2 (IgG2-WT) (antibody)
heavy: EVQLQESGPSLVKPSQTLSLTCSVTGDSITSGYWNWIRQVPGNKLEYMGFINYSGNTYYNPSLRSRISITRDTSKNQYFLHLNSVTTEDTATYYCARANWDVFAYWGQGTLVTVSAASTKGPSVFPLAPCSRSTSESTAALGCLVKDYFPEPVTVSWNSGALTSGVHTFPAVLQSSGLYSLSSVVTVPSSNFGTQTYTCNVDHKPSNTKVDKTVERKCCVECPPCPAPPVAGPSVFLFPPKPKDTLMISRTPEVTCVVVDVSHEDPEVQFNWYVDGVEVHNAKTKPREEQFNSTFRVVSVLTVVHQDWLNGKEYKCKVSNKGLPAPIEKTISKTKGQPREPQVYTLPPSREEMTKNQVSLTCLVKGFYPSDIAVEWESNGQPENNYKTTPPMLDSDGSFFLYSKLTVDKSRWQQGNVFSCSVMHEALHNHYTQKSLSLSLGK
light: not shown
notes: also called parental IgG2; wild type IgG2
B7: anti-TNP IgG2-SELF (antibody)
heavy: B6 heavy with S262E, L323F
light: not shown

Columns and labels:
[1] = biological target: T1, human FcγRIIb expressed on the cell surface (human, UniProt P31994 43-310); assay: cell-based or functional assay
T1 sequence (looked up): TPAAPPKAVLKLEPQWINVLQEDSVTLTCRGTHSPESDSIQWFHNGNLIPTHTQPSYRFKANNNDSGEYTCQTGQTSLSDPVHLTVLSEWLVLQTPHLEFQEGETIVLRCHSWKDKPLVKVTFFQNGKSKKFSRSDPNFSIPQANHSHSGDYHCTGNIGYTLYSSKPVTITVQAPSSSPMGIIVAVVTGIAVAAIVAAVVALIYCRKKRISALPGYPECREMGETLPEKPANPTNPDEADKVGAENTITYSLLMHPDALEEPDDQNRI

[2] = biological target: T2, recombinant soluble FcγRIIb (human, UniProt P31994 43-217); assay: BLI (Octet); anti-TNP IgG captured on TNP-BSA-biotin, rsFcγR in solution; global 1:1 Langmuir fit
T2 construct: extracellular domain; also called rsFcγRIIb
T2 sequence (looked up): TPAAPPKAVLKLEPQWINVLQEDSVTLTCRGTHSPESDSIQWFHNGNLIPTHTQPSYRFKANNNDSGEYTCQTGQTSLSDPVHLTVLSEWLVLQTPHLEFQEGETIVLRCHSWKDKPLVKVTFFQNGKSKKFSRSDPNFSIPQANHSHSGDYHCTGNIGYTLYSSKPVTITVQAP
Method: (§1) Affinity measurements of IgG:FcR interaction using Bio-Layer Interferometry (OCTET) TNP-BSA was reacted with the EZ-Link™ biotinylation reagent (ThermoFisher Scientific) according to the manufacturer's instructions. The resulting TNP-BSA-biotin (5 μg/ml, 30 sec) was captured to ˜0.8 nm on streptavidin BLI probes using an Octet Red96 (ForteBio; Molecular Devices LLC, San Jose, CA, United States of America) then loaded with anti-TNP IgG (4 μg/ml, 75 sec). A baseline was established (60 sec) followed by the association and dissociation (90s) of a concentration series (15 nM to 20 μM) of rsFcγRIIa-R131 or rsFcγRIIb. Regeneration after each initial reaction TNP-BSA-biotin capture and the subsequent binding cycles used 10 mM HCl.

[3] = biological target: T3, recombinant soluble FcγRIIa-Arg131 (human, UniProt P12318 34-217); assay: as above
T3 construct: extracellular domain; Arg131 allelic form; also called rsFcγRIIa-R131
T3 sequence (looked up): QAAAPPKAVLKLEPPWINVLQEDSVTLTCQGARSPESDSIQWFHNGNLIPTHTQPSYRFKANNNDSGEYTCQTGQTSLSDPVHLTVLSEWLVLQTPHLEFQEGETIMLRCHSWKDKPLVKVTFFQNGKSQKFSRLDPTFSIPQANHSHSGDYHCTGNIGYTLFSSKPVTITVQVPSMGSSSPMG
Method: as §1

[4] = biological target: T4, human FcγRIIIa-V158 expressed on the cell surface (human, UniProt P08637 17-254); assay: flow cytometry; immune complexes on IIA1.6 cells expressing the FcγR
T4 construct: whole, on cells; Co-expressed with the FcR common γ chain (FcRγ-EGFP)
T4 sequence (P08637 17-254 F176V): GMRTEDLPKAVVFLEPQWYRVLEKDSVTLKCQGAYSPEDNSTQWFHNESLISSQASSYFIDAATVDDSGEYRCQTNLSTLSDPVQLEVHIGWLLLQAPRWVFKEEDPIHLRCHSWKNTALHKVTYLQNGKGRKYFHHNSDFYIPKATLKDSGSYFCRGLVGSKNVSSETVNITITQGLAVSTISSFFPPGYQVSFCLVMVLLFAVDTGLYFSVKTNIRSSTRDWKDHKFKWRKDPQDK
Method: (§2) Antibody FcγR binding was measured using either immune complexes or monomeric IgG. Immune complexes were generated by incubating the anti-TNP antibodies (parental or mutant anti-TNP IgG) with TNP-BSA at a 2:1 ratio (40 μg/ml:20 μg/ml) for 30 minutes at 37° C. then 10 minutes at 4° C. […] The cells were washed twice, resuspended in […] PBS/0.5% BSA and 10,000 viable cells analysed in at least three experiments. Monomer IgG binding (MFI) were fitted to a single binding site model to determine binding affinity (KA). Similarly immune complex binding is reported as apparent affinity (K app).

[5] = biological target: T5, human FcγRIIIa-F158 expressed on the cell surface (human, UniProt P08637 17-254); assay: as above
T5 construct: whole, on cells; Co-expressed with the FcR common γ chain (FcRγ-EGFP)
T5 sequence (P08637 17-254): as the sequence (P08637 17-254 F176V) above, with V160F counted along it
Method: as §2

[6] = biological target: T1, human FcγRIIb expressed on the cell …; assay: flow cytometry; monomeric IgG on IIA1.6 cells expressing FcγRIIb, single site fit of MFI
Method: as §2
In an attempt to further improve FcγRIIb specificity, two residues in CH2 of the Fc domain were additionally modified (see Table 1). Particularly, two mutations S267E and L328F (SELF) which have been used in the IgG1 backbone (Chu S Y et al., Mol Immunol 45(15):3926-3933, 2008) were introduced into the IgG2- and IgG4-based mAbs, IgG2-FLGG, IgG2-FEGG and IgG4-FEGG, as well as the parental IgG4 antibody. The antibodies were then tested for specificity (see FIGS. 4-6) and inhibitory potency in allergen specific (FIG. 3) and anti-IgE BAT (FIG. 7). Several effects were apparent.

[7] = biological target: T6, human FcγRI expressed on the cell surface (human, UniProt P12314 16-374); assay: flow cytometry; monomeric IgG on IIA1.6 cells expressing FcγRI
T6 construct: whole, on cells; Co-expressed with the FcR common γ chain
T6 sequence (P12314 16-374): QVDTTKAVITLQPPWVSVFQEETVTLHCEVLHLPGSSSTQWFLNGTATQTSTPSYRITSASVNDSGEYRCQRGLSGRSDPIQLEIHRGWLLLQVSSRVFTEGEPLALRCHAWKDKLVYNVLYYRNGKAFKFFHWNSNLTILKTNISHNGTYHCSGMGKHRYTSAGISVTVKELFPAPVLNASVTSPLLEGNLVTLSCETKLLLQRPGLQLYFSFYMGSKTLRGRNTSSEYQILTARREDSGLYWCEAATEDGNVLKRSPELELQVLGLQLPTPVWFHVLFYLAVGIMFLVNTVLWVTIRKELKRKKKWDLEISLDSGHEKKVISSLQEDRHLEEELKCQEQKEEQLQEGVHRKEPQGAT
Method: as §2

[8] = biological target: T4, human FcγRIIIa-V158 expressed on the …; assay: flow cytometry; immune complexes with TNP-BSA on IIA1.6 cells expressing the FcγR
Method: as §2
(§3) The interaction of the mutant IgGs with the human FcγRs on the cell surface was evaluated by flow cytometry and compared to the binding of parental IgG2 or IgG4 as well as to IgG1, the “universal” ligand for all human FcγR. Binding to the low affinity human FcγR (FcγRIIb, FcγRIIa, and FcγRIII) was performed using immune complexes (FIG. 1A-E). Binding to the high affinity FcγRI was determined using monomeric IgG (FIG. 1F). […] Uncomplexed, monomeric IgG1 and IgG4, but not IgG2, bound to the high affinity FcγRI.

[9] = biological target: T7, human FcγRIIa-H131 expressed on the cell surface (human, UniProt P12318 34-317); assay: as above
T7 construct: whole, on cells
T7 sequence (looked up): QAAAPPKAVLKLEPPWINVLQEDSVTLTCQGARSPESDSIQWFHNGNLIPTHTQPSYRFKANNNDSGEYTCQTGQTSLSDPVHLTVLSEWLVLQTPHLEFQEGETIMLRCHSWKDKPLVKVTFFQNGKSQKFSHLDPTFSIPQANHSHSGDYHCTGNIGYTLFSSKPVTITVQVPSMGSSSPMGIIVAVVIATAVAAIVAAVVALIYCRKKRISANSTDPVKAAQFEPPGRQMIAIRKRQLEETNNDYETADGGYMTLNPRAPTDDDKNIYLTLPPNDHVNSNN
Method: as §2, §3

[10] = biological target: T8, human FcγRIIa-R131 expressed on the cell surface (human, UniProt P12318 34-317); assay: as above
T8 construct: whole, on cells
T8 sequence (looked up): T7 sequence (looked up) with H134R
Method: as §2, §3

[11] = biological target: T5, human FcγRIIIa-F158 expressed on the …; assay: as above
Method: as §2, §3

| Binder | IC50 of inhibition of basophil activation (whole blood BAT) [1] [µg/mL] | Ka [2] [M⁻¹] | Ka [3] [M⁻¹] | other results |
| --- | --- | --- | --- | --- |
| B1 | 1.1 |  |  |  |
| B2 | 1.6 | 830000 |  | % inhibition of Api m 1 induced basophil activation (washed blood BAT) [1]: 85% |
| B3 | 0.24 | 1.03e+08 | 6.3e+08 | binding result [4]: no binding; binding result [5]: no binding; Ka [6]: 8.9e+07 M⁻¹ |
| B4 |  | 800000 |  | % inhibition of Api m 1 induced basophil activation (washed blood BAT) [1]: 81% |
| B5 | 0.38 | 2.9e+07 | 1.88e+08 | binding result [7]: no binding; Ka [6]: 3.2e+07 M⁻¹ |
| B6 |  | 59000 |  | binding result [8]: no binding; binding result [9]: binds; binding result [10]: no binding; binding result [11]: no binding; binding result [7]: no binding |
| B7 |  | 3.4e+07 | 9.1e+07 |  |
